Reference: patent US20190077860A1 (EISAI R AND D MANAGEMENT, published 2019)
Numbering of substitutions follows the chain as printed.

What was measured:
Test in all cases: ELISA
[1] = target: T1, human EphA6 extracellular region-SEAP-His protein (human, UniProt Q9UF33 23-550)
T1 construct: extracellular domain; also called hEphA6-SEAP-His
T1 sequence (looked up): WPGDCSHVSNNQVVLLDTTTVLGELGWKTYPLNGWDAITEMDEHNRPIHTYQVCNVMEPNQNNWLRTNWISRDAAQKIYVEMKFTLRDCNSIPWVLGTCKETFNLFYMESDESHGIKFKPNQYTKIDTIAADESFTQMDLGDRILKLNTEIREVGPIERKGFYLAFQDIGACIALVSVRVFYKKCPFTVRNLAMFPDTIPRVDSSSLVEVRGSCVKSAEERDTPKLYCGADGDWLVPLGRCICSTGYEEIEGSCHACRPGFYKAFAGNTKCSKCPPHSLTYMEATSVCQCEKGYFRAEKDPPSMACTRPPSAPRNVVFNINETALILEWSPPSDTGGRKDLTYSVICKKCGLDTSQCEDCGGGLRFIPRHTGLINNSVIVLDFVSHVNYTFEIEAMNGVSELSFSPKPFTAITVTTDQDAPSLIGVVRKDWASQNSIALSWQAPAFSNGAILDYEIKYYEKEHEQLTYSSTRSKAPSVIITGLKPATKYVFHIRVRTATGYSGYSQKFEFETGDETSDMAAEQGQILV

[2] = target: T2, human EphA2 extracellular region-SEAP-His protein (human, UniProt P29317 24-537)
T2 construct: extracellular domain; also called hEphA2-SEAP-His

[3] = target: T3, human EphB4 extracellular region-SEAP-His protein (human, UniProt P54760 16-539)
T3 construct: extracellular domain; also called hEphB4-SEAP-His
T3 sequence (looked up): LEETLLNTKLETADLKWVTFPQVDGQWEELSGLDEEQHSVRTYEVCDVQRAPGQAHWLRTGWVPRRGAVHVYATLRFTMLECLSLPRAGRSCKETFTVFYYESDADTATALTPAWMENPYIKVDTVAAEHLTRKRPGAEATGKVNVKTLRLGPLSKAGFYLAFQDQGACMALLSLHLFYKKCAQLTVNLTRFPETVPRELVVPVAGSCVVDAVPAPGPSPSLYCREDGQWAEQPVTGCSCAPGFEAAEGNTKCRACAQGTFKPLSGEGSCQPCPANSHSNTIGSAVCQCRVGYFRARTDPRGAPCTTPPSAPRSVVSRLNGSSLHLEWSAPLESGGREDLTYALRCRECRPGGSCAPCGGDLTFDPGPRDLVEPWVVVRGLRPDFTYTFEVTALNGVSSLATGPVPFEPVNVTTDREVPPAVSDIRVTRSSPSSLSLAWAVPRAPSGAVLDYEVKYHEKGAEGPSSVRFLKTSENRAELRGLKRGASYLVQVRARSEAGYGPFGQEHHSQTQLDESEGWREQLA

[4] = target: T4, human EphB1 extracellular region-SEAP-His protein (human, UniProt P54762 18-540)
T4 construct: extracellular domain; also called hEphB1-SEAP-His
T4 sequence (looked up): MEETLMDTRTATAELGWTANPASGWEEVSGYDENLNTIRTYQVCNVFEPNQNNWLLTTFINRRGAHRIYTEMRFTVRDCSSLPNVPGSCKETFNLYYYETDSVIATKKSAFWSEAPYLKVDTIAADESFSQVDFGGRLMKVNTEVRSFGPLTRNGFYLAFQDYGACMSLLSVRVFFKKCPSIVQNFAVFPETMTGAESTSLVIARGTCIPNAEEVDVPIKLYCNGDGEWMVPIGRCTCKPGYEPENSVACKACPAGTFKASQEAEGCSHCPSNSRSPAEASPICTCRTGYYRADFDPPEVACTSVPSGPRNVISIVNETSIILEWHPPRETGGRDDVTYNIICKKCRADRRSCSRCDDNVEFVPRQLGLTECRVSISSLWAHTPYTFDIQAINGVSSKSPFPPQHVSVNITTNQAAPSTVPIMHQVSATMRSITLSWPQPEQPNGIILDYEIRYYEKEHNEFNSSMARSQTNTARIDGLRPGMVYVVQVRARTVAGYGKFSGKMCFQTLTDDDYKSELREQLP

[5] = target: T5, human EphA4 extracellular region-SEAP-His protein (human, UniProt P54764 20-547)
T5 construct: also called hEphA4-SEAP-His

[6] = target: T6, human EphB3 extracellular region-SEAP-His protein (human, UniProt P54753 34-559)
T6 construct: extracellular domain; also called hEphB3-SEAP-His
T6 sequence (looked up): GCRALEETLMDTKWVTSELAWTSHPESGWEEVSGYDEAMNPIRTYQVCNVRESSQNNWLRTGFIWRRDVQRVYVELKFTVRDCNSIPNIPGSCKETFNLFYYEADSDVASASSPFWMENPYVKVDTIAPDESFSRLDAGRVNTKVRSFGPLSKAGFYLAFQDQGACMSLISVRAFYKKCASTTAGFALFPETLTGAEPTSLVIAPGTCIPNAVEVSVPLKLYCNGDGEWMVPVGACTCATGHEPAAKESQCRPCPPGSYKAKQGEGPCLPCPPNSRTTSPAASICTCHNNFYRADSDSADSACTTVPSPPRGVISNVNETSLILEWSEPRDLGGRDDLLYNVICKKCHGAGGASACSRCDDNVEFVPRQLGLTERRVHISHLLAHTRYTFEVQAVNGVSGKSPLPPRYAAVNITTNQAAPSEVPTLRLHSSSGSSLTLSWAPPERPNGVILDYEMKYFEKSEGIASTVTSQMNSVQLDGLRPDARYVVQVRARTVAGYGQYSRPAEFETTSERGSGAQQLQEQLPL

T5 sequence (P54764 20-547): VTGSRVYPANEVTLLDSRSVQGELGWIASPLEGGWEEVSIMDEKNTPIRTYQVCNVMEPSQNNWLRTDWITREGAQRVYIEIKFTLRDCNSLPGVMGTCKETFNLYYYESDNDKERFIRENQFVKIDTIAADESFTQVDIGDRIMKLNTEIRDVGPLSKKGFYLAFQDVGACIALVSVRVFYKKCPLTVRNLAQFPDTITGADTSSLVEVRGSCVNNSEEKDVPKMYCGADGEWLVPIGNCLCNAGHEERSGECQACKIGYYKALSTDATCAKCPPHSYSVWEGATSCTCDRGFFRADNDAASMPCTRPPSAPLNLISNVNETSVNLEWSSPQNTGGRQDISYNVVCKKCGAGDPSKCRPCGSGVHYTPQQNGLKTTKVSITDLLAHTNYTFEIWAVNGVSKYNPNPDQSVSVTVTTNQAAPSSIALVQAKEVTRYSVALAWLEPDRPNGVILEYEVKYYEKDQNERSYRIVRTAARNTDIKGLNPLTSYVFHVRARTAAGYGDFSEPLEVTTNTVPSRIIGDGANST
T2 sequence (P29317 24-537): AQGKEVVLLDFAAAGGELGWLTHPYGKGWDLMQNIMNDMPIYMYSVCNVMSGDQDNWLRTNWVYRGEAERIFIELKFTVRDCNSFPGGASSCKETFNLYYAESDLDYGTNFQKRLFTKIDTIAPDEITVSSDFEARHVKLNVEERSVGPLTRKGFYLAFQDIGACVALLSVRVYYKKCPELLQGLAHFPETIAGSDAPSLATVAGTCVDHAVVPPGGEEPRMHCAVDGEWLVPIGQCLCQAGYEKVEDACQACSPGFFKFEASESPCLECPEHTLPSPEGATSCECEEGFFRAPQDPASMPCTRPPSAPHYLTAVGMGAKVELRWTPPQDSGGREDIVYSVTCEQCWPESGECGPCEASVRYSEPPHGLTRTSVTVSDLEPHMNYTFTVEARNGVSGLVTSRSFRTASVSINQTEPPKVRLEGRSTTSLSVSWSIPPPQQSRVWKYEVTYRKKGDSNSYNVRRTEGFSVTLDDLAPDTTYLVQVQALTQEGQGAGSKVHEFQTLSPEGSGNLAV

B1: humanized antibody No. 142 (antibody, human IgG2)
heavy: QVQLVQSGSELKKPGASVKVSCKASGYTFTDYSMHWVRQAPGQGLKWMGWINTETGEPTYADDFKGRFVFSLDTSVSTAYLQISSLKAEDTAVYYCARIPLYYYGSRYWYFDVWGQGTTVTVSSASTKGPSVFPLAPSSRSTSESTAALGCLVKDYFPEPVTVSWNSGALTSGVHTFPAVLQSSGLYSLSSVVTVPSSNFGTQTYTCNVDHKPSNTKVDKTVERKSCVECPPCPAPPAAAPSVFLFPPKPKDTLMISRTPEVTCVVVDVSHEDPEVQFNWYVDGVEVHNAKTKPREEQFNSTFRVVSVLTVVHQDWLNGKEYKCKVSNKGLPAPIEKTISKTKGQPREPQVYTLPPSREEMTKNQVSLTCLVKGFYPSDIAVEWESNGQPENNYKTTPPMLDSDGSFFLYSKLTVDKSRWQQGNVFSCSVMHEALHNHYTQKSLSLSPG
light: DIQMTQSPSSLSASVGDRVTITCRASENIYRNLAWYQQKPGKAPKLLVYAATNLADGVPSRFSGSGSGTDYTLTISSLQPEDFATYYCQHFWGTPWTFGQGTKVEIKRTVAAPSVFIFPPSDEQLKSGTASVVCLLNNFYPREAKVQWKVDNALQSGNSQESVTEQDSKDSTYSLSSTLTLSKADYEKHKVYACEVTHQGLSSPVTKSFNRGEC
notes: human Ig kappa; also called L1-4/HK2
[1]
  A450 as % of hEphA4-SEAP-His: 9.7%
[2]
  A450 as % of hEphA4-SEAP-His: 5.6%
[3]
  A450 as % of hEphA4-SEAP-His: 5.7%
[4]
  A450 as % of hEphA4-SEAP-His: 5.6%
[5]
  A450 as % of hEphA4-SEAP-His: 100%
[6]
  A450 as % of hEphA4-SEAP-His: 5.6%

B2: humanized antibody No. 143 (antibody, human IgG2)
heavy: B1 heavy with V2I
light: B1 light
notes: human Ig kappa; also called L1-4/HK4
[1]
  A450 as % of hEphA4-SEAP-His: 9.9%
[2]
  A450 as % of hEphA4-SEAP-His: 5.7%
[3]
  A450 as % of hEphA4-SEAP-His: 5.9%
[4]
  A450 as % of hEphA4-SEAP-His: 5.9%
[5]
  A450 as % of hEphA4-SEAP-His: 100%
[6]
  A450 as % of hEphA4-SEAP-His: 5.9%

B3: humanized antibody No. 144 (antibody, human IgG2)
heavy: B1 heavy with K46E
light: B1 light with K45Q, V48L
notes: human Ig kappa; also called L1-6/HK1
[1]
  A450 as % of hEphA4-SEAP-His: 8.1%
[2]
  A450 as % of hEphA4-SEAP-His: 5.6%
[3]
  A450 as % of hEphA4-SEAP-His: 5.7%
[4]
  A450 as % of hEphA4-SEAP-His: 5.7%
[5]
  A450 as % of hEphA4-SEAP-His: 100%
[6]
  A450 as % of hEphA4-SEAP-His: 5.8%

B4: humanized antibody No. 145 (antibody, human IgG2)
heavy: B1 heavy
light: B1 light with V48L, P80S
notes: human Ig kappa; also called L1-5/HK2
[1]
  A450 as % of hEphA4-SEAP-His: 8.6%
[2]
  A450 as % of hEphA4-SEAP-His: 6.5%
[3]
  A450 as % of hEphA4-SEAP-His: 6.7%
[4]
  A450 as % of hEphA4-SEAP-His: 6.5%
[5]
  A450 as % of hEphA4-SEAP-His: 100%
[6]
  A450 as % of hEphA4-SEAP-His: 6.7%

B5: humanized antibody No. 151 (antibody, human IgG2)
heavy: B1 heavy with V2I, D62Q, D63G, K65T
light: B1 light with V48L, P80S
notes: human Ig kappa; also called L1-5/HA4
[1]
  A450 as % of hEphA4-SEAP-His: 9.9%
[2]
  A450 as % of hEphA4-SEAP-His: 6.9%
[3]
  A450 as % of hEphA4-SEAP-His: 7.4%
[4]
  A450 as % of hEphA4-SEAP-His: 6.8%
[5]
  A450 as % of hEphA4-SEAP-His: 100%
[6]
  A450 as % of hEphA4-SEAP-His: 7.3%

B6: humanized antibody No. 152 (antibody, human IgG2)
heavy: B1 heavy with K46E, D62Q, D63G, K65T
light: B1 light with V48L, P80S
notes: human Ig kappa; also called L1-5/HA1
[1]
  A450 as % of hEphA4-SEAP-His: 8.3%
[2]
  A450 as % of hEphA4-SEAP-His: 5.8%
[3]
  A450 as % of hEphA4-SEAP-His: 5.9%
[4]
  A450 as % of hEphA4-SEAP-His: 5.9%
[5]
  A450 as % of hEphA4-SEAP-His: 100%
[6]
  A450 as % of hEphA4-SEAP-His: 6%
